In this assay the target is C1q Receptor in the complement system (rabbit serum complement) (rabbit). Briefly: cell-based or functional assay.
As for RITUXAN (rituximab) (antibody), the CDC EC50 (Jeko-1 cells, rabbit serum) was 0.245 µg/mL.

With ARZERRA (ofatumumab) (antibody), the CDC EC50 (Jeko-1 cells, rabbit serum) came out at 0.353 µg/mL.

On to OCREVUS (ocrelizumab) (antibody), for which the CDC EC50 (Jeko-1 cells, rabbit serum) came to 1.21 µg/mL.

These data come from patent publication US11807689.
